Measurements published in patent US20250026860A1 (NATIONAL UNIVERSITY CORPORATION OKAYAMA UNIVERSITY, published 2025).

Assays:
Experiment in all cases: ELISA, albumin preparation immobilized on 96-well microplate
[1] = target: bovine serum albumin protein adduct with 4-HNE (bovine) (UniProt P02769)
[2] = target: rabbit serum albumin protein adduct with 4-HNE (rabbit) (UniProt P49065)
[3] = target: rat serum albumin protein adduct with 4-HNE (rat) (UniProt P02770)
[4] = target: human serum albumin protein adduct with 4-HNE (human) (UniProt P02768)
human serum albumin protein adduct with 4-HNE (human), sequence (P02768 25-609 limits assumed, form in doubt): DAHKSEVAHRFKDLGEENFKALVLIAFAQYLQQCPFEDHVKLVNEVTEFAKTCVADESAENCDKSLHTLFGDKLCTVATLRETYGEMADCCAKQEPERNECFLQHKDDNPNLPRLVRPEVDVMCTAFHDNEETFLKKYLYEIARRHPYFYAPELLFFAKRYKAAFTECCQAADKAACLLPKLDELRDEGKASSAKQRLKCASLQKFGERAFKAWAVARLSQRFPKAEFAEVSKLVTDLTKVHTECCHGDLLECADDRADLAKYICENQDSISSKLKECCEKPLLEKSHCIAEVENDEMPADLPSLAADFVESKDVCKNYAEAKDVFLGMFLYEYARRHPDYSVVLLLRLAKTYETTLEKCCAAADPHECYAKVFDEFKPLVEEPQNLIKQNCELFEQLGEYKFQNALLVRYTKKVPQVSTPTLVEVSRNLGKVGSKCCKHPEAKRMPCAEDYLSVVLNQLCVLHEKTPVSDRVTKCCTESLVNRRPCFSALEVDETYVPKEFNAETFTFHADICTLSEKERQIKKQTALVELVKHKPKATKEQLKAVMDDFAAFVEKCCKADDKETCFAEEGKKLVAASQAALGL

[5] = target: T1, rabbit serum albumin modified with glyceraldehyde (rabbit, UniProt P49065 25-608, non-enzymatically modified by incubation with glyceraldehyde (50 mM, 7 days); sites not stated)
T1 construct: also called Glyceraldehyde Rabbit-SA
T1 sequence (P49065 25-608 limits assumed): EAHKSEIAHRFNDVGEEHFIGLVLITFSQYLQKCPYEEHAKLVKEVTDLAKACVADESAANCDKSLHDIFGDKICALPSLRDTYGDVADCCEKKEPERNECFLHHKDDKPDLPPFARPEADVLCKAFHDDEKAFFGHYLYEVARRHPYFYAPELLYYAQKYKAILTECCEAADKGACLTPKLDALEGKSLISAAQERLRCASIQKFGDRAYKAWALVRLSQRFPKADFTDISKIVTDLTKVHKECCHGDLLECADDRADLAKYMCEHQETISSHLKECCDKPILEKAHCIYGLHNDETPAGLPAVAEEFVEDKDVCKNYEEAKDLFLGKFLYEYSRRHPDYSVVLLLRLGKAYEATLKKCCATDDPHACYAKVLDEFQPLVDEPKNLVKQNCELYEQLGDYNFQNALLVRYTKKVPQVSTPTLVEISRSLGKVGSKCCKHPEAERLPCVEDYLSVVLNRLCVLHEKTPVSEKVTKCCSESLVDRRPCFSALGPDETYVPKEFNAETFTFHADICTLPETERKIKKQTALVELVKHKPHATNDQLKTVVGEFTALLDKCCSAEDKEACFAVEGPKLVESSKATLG
Excerpt: (§1) Each mixed solution of substrate albumin and a protein-modifying substance was immobilized on a 96-well microplate, and was investigated for specificity to the anti-4-HNE antibody (#13-1-1) of the present invention by an ELISA method.

[6] = target: T2, rat serum albumin modified with glyoxal (rat, UniProt P02770 25-608, non-enzymatically modified by incubation with glyoxal (50 mM, 7 days); sites not stated)
T2 construct: also called Glyoxal Rat-SA
T2 sequence (P02770 25-608 limits assumed): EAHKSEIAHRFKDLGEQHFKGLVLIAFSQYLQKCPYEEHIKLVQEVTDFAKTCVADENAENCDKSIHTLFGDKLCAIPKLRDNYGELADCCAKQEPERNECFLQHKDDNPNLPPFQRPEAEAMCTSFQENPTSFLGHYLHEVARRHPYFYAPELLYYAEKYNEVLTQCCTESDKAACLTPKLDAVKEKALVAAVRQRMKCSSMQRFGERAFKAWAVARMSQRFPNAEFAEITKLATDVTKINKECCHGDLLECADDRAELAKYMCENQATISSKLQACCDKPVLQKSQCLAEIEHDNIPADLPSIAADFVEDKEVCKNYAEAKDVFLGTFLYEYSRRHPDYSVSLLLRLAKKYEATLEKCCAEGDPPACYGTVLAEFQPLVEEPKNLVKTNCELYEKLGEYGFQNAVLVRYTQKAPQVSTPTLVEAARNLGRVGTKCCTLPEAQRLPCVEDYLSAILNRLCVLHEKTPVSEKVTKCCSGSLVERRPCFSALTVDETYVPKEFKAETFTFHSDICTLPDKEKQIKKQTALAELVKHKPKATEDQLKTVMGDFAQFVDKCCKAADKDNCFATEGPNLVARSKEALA
Excerpt: as §1

[7] = target: T3, rat serum albumin modified with malondialdehyde (rat, UniProt P02770 25-608, non-enzymatically modified by incubation with malondialdehyde (MDA, 50 mM, 7 days); sites not stated)
T3 construct: also called MDA Rat-SA
T3 sequence (P02770 25-608 limits assumed): as above
Excerpt: as §1

[8] = target: T4, rabbit serum albumin modified with glycolaldehyde (rabbit, UniProt P49065 25-608, non-enzymatically modified by incubation with glycolaldehyde (50 mM, 7 days); sites not stated)
T4 construct: also called Glycolaldehyde Rabbit-SA
T4 sequence (P49065 25-608 limits assumed): as the sequence (P49065 25-608 limits assumed) above
Excerpt: as §1

[9] = target: T5, rat serum albumin modified with glycolaldehyde (rat, UniProt P02770 25-608, non-enzymatically modified by incubation with glycolaldehyde (50 mM, 7 days); sites not stated)
T5 construct: also called Glycolaldehyde Rat-SA
T5 sequence (P02770 25-608 limits assumed): as the sequence (P02770 25-608 limits assumed) above
Excerpt: as §1

[10] = target: T6, bovine serum albumin modified with crotonaldehyde (bovine, UniProt P02769 25-607, non-enzymatically modified by incubation with crotonaldehyde (CRA, 50 mM, 7 days); sites not stated)
T6 construct: also called CRA BSA
T6 sequence (P02769 25-607 limits assumed): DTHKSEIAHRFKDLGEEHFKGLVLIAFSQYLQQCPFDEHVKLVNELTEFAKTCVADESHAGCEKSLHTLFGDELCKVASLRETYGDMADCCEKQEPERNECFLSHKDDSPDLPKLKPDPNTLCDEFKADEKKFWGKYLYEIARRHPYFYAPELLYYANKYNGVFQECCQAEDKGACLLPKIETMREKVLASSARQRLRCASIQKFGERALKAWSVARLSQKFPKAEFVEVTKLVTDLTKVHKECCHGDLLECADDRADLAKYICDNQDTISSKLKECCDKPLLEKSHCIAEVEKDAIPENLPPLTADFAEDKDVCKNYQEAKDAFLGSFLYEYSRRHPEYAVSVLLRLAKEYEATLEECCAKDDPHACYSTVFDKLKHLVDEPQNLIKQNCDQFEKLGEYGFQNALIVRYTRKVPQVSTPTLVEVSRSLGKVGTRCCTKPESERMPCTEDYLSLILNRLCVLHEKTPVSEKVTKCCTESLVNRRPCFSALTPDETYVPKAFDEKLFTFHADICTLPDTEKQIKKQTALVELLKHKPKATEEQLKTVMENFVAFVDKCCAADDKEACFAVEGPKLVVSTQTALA
Excerpt: as §1

[11] = target: T7, rabbit serum albumin, unmodified (rabbit, UniProt P49065 25-608)
T7 construct: also called Rabbit-SA
T7 sequence (P49065 25-608 limits assumed): as the sequence (P49065 25-608 limits assumed) above
Excerpt: as §1

[12] = target: T8, bovine serum albumin, unmodified (bovine, UniProt P02769 25-607)
T8 construct: also called BSA
T8 sequence (P02769 25-607 limits assumed): as the sequence (P02769 25-607 limits assumed) above
Excerpt: as §1

[13] = target: T9, rabbit serum albumin modified with malondialdehyde (rabbit, UniProt P49065 25-608, non-enzymatically modified by incubation with malondialdehyde (MDA, 50 mM, 7 days); sites not stated)
T9 construct: also called MDA Rabbit-SA
T9 sequence (P49065 25-608 limits assumed): as the sequence (P49065 25-608 limits assumed) above
Excerpt: as §1

[14] = target: T10, rabbit serum albumin modified with methylglyoxal (rabbit, UniProt P49065 25-608, non-enzymatically modified by incubation with methylglyoxal (50 mM, 7 days); sites not stated)
T10 construct: also called Methylglyoxal Rabbit-SA
T10 sequence (P49065 25-608 limits assumed): as above
Excerpt: as §1

[15] = target: T11, rabbit serum albumin modified with D-glucose (rabbit, UniProt P49065 25-608, non-enzymatically modified by incubation with D-glucose (250 mM, 3 weeks); sites not stated)
T11 construct: also called D-glucose Rabbit-SA
T11 sequence (P49065 25-608 limits assumed): as above
Excerpt: as §1

[16] = target: T12, rabbit serum albumin modified with glyoxal (rabbit, UniProt P49065 25-608, non-enzymatically modified by incubation with glyoxal (50 mM, 7 days); sites not stated)
T12 construct: also called Glyoxal Rabbit-SA
T12 sequence (P49065 25-608 limits assumed): as above
Excerpt: as §1

[17] = target: T13, bovine serum albumin modified with glyoxal (bovine, UniProt P02769 25-607, non-enzymatically modified by incubation with glyoxal (50 mM, 7 days); sites not stated)
T13 construct: also called Glyoxal BSA
T13 sequence (P02769 25-607 limits assumed): as the sequence (P02769 25-607 limits assumed) above
Excerpt: as §1

[18] = target: T14, human serum albumin modified with methylglyoxal (human, UniProt P02768 25-609, non-enzymatically modified by incubation with methylglyoxal (50 mM, 7 days); sites not stated)
T14 construct: also called Methylglyoxal HSA
T14 sequence (P02768 25-609 limits assumed): as the sequence (P02768 25-609 limits assumed, form in doubt) above
Excerpt: as §1

[19] = target: T15, rat serum albumin modified with methylglyoxal (rat, UniProt P02770 25-608, non-enzymatically modified by incubation with methylglyoxal (50 mM, 7 days); sites not stated)
T15 construct: also called Methylglyoxal Rat-SA
T15 sequence (P02770 25-608 limits assumed): as the sequence (P02770 25-608 limits assumed) above
Excerpt: as §1

[20] = target: T16, human serum albumin modified with glycolaldehyde (human, UniProt P02768 25-609, non-enzymatically modified by incubation with glycolaldehyde (50 mM, 7 days); sites not stated)
T16 construct: also called Glycolaldehyde HSA
T16 sequence (P02768 25-609 limits assumed): as the sequence (P02768 25-609 limits assumed, form in doubt) above
Excerpt: as §1

[21] = target: T17, rat serum albumin, unmodified (rat, UniProt P02770 25-608)
T17 construct: also called Rat-SA
T17 sequence (P02770 25-608 limits assumed): as the sequence (P02770 25-608 limits assumed) above
Excerpt: as §1

[22] = target: T18, bovine serum albumin modified with glycolaldehyde (bovine, UniProt P02769 25-607, non-enzymatically modified by incubation with glycolaldehyde (50 mM, 7 days); sites not stated)
T18 construct: also called Glycolaldehyde BSA
T18 sequence (P02769 25-607 limits assumed): as the sequence (P02769 25-607 limits assumed) above
Excerpt: as §1

[23] = target: T19, human serum albumin modified with glyceraldehyde (human, UniProt P02768 25-609, non-enzymatically modified by incubation with glyceraldehyde (50 mM, 7 days); sites not stated)
T19 construct: also called Glyceraldehyde HSA
T19 sequence (P02768 25-609 limits assumed): as the sequence (P02768 25-609 limits assumed, form in doubt) above
Excerpt: as §1

[24] = target: T20, human serum albumin modified with crotonaldehyde (human, UniProt P02768 25-609, non-enzymatically modified by incubation with crotonaldehyde (CRA, 50 mM, 7 days); sites not stated)
T20 construct: also called CRA HSA
T20 sequence (P02768 25-609 limits assumed): as the sequence (P02768 25-609 limits assumed, form in doubt) above
Excerpt: as §1

[25] = target: T21, rabbit serum albumin modified with crotonaldehyde (rabbit, UniProt P49065 25-608, non-enzymatically modified by incubation with crotonaldehyde (CRA, 50 mM, 7 days); sites not stated)
T21 construct: also called CRA Rabbit-SA
T21 sequence (P49065 25-608 limits assumed): as the sequence (P49065 25-608 limits assumed) above
Excerpt: as §1

[26] = target: T22, bovine serum albumin modified with malondialdehyde (bovine, UniProt P02769 25-607, non-enzymatically modified by incubation with malondialdehyde (MDA, 50 mM, 7 days); sites not stated)
T22 construct: also called MDA BSA
T22 sequence (P02769 25-607 limits assumed): as the sequence (P02769 25-607 limits assumed) above
Excerpt: as §1

[27] = target: T23, rat serum albumin modified with glyceraldehyde (rat, UniProt P02770 25-608, non-enzymatically modified by incubation with glyceraldehyde (50 mM, 7 days); sites not stated)
T23 construct: also called Glyceraldehyde Rat-SA
T23 sequence (P02770 25-608 limits assumed): as the sequence (P02770 25-608 limits assumed) above
Excerpt: as §1

[28] = target: T24, human serum albumin modified with malondialdehyde (human, UniProt P02768 25-609, non-enzymatically modified by incubation with malondialdehyde (MDA, 50 mM, 7 days); sites not stated)
T24 construct: also called MDA HSA
T24 sequence (P02768 25-609 limits assumed): as the sequence (P02768 25-609 limits assumed, form in doubt) above
Excerpt: as §1

[29] = target: T25, bovine serum albumin modified with methylglyoxal (bovine, UniProt P02769 25-607, non-enzymatically modified by incubation with methylglyoxal (50 mM, 7 days); sites not stated)
T25 construct: also called Methylglyoxal BSA
T25 sequence (P02769 25-607 limits assumed): as the sequence (P02769 25-607 limits assumed) above
Excerpt: as §1

[30] = target: T26, human serum albumin modified with D-glucose (human, UniProt P02768 25-609, non-enzymatically modified by incubation with D-glucose (250 mM, 3 weeks); sites not stated)
T26 construct: also called D-glucose HSA
T26 sequence (P02768 25-609 limits assumed): as the sequence (P02768 25-609 limits assumed, form in doubt) above
Excerpt: as §1

[31] = target: T27, rat serum albumin modified with D-glucose (rat, UniProt P02770 25-608, non-enzymatically modified by incubation with D-glucose (250 mM, 3 weeks); sites not stated)
T27 construct: also called D-glucose Rat-SA
T27 sequence (P02770 25-608 limits assumed): as the sequence (P02770 25-608 limits assumed) above
Excerpt: as §1

[32] = target: T28, bovine serum albumin modified with glyceraldehyde (bovine, UniProt P02769 25-607, non-enzymatically modified by incubation with glyceraldehyde (50 mM, 7 days); sites not stated)
T28 construct: also called Glyceraldehyde BSA
T28 sequence (P02769 25-607 limits assumed): as the sequence (P02769 25-607 limits assumed) above
Excerpt: as §1

[33] = target: T29, rat serum albumin modified with crotonaldehyde (rat, UniProt P02770 25-608, non-enzymatically modified by incubation with crotonaldehyde (CRA, 50 mM, 7 days); sites not stated)
T29 construct: also called CRA Rat-SA
T29 sequence (P02770 25-608 limits assumed): as the sequence (P02770 25-608 limits assumed) above
Excerpt: as §1

[34] = target: T30, human serum albumin, unmodified (human, UniProt P02768 25-609)
T30 construct: also called HSA
T30 sequence (P02768 25-609 limits assumed): as the sequence (P02768 25-609 limits assumed, form in doubt) above
Excerpt: as §1

[35] = target: T31, bovine serum albumin modified with D-glucose (bovine, UniProt P02769 25-607, non-enzymatically modified by incubation with D-glucose (250 mM, 3 weeks); sites not stated)
T31 construct: also called D-glucose BSA
T31 sequence (P02769 25-607 limits assumed): as the sequence (P02769 25-607 limits assumed) above
Excerpt: as §1

[36] = target: T32, human serum albumin modified with glyoxal (human, UniProt P02768 25-609, non-enzymatically modified by incubation with glyoxal (50 mM, 7 days); sites not stated)
T32 construct: also called Glyoxal HSA
T32 sequence (P02768 25-609 limits assumed): as the sequence (P02768 25-609 limits assumed, form in doubt) above
Excerpt: as §1

bovine serum albumin protein adduct with 4-HNE (bovine), sequence (P02769 25-607 limits assumed, form in doubt): as the sequence (P02769 25-607 limits assumed) above
rat serum albumin protein adduct with 4-HNE (rat), sequence (P02770 25-608 limits assumed, form in doubt): as the sequence (P02770 25-608 limits assumed) above
rabbit serum albumin protein adduct with 4-HNE (rabbit), sequence (P49065 25-608 limits assumed, form in doubt): as the sequence (P49065 25-608 limits assumed) above

B1: anti-4-HNE monoclonal antibody (#13-1-1) (antibody, V domains shown)
VH: EVKLLASGGGLVQPGGSMRLSCAASGFTFTDFYMYWIRQPAGKAPEWLGFIRNKANGYTTEYNPSVKGRFTISRDNTQNMLYLQMNTLRAEDTATYYCALGYYGYNYNWFAYWGQGTLVTVSS
VL: ETVMTQSPTSMSTSIGERVTLNCRASQSVGINVDWYQQTPGQSPKMLIYGASNRHTGVPDRFTGSGFGRDFTLTISNMEAEDLGVYYCLQYASIPYTFGAGTKLELKR
notes: Rat hybridoma monoclonal antibody; also called anti-4-HNE antibody (#13-1-1); monoclonal antibody produced from Rat hybridoma #13-1-1
[1]
  ELISA reading (name and unit not given): 1.11
[2]
  ELISA reading (name and unit not given): 0.663
[3]
  ELISA reading (name and unit not given): 1.37
[4]
  ELISA reading (name and unit not given): 0.956
[5]
  ELISA reading (name and unit not given): 0.069
[6]
  ELISA reading (name and unit not given): 0.073
[7]
  ELISA reading (name and unit not given): 0.08
[8]
  ELISA reading (name and unit not given): 0.067
[9]
  ELISA reading (name and unit not given): 0.07
[10]
  ELISA reading (name and unit not given): 0.156
[11]
  ELISA reading (name and unit not given): 0.114
[12]
  ELISA reading (name and unit not given): 0.15
[13]
  ELISA reading (name and unit not given): 0.07
[14]
  ELISA reading (name and unit not given): 0.072
[15]
  ELISA reading (name and unit not given): 0.069
[16]
  ELISA reading (name and unit not given): 0.073
[17]
  ELISA reading (name and unit not given): 0.066
[18]
  ELISA reading (name and unit not given): 0.069
[19]
  ELISA reading (name and unit not given): 0.074
[20]
  ELISA reading (name and unit not given): 0.071
[21]
  ELISA reading (name and unit not given): 0.088
[22]
  ELISA reading (name and unit not given): 0.071
[23]
  ELISA reading (name and unit not given): 0.068
[24]
  ELISA reading (name and unit not given): 0.077
[25]
  ELISA reading (name and unit not given): 0.074
[26]
  ELISA reading (name and unit not given): 0.074
[27]
  ELISA reading (name and unit not given): 0.069
[28]
  ELISA reading (name and unit not given): 0.065
[29]
  ELISA reading (name and unit not given): 0.073
[30]
  ELISA reading (name and unit not given): 0.068
[31]
  ELISA reading (name and unit not given): 0.076
[32]
  ELISA reading (name and unit not given): 0.07
[33]
  ELISA reading (name and unit not given): 0.141
[34]
  ELISA reading (name and unit not given): 0.118
[35]
  ELISA reading (name and unit not given): 0.081
[36]
  ELISA reading (name and unit not given): 0.065
